Source: paper PMC3075217

Molecular target: rat collagen type I (rat) (UniProt P02454)
Assay: ELISA; rat collagen type I coated on a 96-well plate; rPnxIIIA variants applied at 10 μg/ml; detected with anti-6x Histidine tag monoclonal antibody, read as A620

Sequence of UniProt P02454 (P02454 152-1207, chain 1 of 2): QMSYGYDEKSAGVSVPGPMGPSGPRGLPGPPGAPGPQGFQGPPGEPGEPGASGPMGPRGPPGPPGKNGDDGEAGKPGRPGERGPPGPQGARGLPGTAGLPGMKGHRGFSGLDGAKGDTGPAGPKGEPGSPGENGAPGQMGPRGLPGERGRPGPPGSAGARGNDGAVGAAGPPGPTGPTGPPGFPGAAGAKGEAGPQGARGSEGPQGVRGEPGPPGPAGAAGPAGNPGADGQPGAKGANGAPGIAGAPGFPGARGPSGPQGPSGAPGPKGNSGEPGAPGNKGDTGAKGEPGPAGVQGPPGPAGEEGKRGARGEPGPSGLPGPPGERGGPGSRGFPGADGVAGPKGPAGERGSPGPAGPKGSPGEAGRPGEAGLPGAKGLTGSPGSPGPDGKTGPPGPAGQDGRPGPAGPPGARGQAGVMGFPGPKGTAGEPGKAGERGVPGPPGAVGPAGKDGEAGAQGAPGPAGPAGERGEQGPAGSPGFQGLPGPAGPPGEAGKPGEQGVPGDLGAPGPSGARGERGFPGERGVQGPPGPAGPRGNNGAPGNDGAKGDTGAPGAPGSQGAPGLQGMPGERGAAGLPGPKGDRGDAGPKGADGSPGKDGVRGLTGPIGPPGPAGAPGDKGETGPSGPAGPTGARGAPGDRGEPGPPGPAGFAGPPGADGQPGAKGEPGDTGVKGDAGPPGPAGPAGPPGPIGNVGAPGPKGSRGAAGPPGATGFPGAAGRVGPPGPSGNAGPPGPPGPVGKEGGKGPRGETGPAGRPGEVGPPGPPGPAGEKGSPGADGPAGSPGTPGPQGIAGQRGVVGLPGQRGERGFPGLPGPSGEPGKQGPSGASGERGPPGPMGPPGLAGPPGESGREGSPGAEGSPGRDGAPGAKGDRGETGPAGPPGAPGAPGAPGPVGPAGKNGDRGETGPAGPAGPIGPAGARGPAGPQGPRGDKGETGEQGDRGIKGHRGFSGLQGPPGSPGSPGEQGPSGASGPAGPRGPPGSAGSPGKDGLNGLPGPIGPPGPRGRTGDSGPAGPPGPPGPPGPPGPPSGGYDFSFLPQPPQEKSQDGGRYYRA
Sequence of UniProt P02454 (P02466 86-1125, chain 2 of 2, further chain): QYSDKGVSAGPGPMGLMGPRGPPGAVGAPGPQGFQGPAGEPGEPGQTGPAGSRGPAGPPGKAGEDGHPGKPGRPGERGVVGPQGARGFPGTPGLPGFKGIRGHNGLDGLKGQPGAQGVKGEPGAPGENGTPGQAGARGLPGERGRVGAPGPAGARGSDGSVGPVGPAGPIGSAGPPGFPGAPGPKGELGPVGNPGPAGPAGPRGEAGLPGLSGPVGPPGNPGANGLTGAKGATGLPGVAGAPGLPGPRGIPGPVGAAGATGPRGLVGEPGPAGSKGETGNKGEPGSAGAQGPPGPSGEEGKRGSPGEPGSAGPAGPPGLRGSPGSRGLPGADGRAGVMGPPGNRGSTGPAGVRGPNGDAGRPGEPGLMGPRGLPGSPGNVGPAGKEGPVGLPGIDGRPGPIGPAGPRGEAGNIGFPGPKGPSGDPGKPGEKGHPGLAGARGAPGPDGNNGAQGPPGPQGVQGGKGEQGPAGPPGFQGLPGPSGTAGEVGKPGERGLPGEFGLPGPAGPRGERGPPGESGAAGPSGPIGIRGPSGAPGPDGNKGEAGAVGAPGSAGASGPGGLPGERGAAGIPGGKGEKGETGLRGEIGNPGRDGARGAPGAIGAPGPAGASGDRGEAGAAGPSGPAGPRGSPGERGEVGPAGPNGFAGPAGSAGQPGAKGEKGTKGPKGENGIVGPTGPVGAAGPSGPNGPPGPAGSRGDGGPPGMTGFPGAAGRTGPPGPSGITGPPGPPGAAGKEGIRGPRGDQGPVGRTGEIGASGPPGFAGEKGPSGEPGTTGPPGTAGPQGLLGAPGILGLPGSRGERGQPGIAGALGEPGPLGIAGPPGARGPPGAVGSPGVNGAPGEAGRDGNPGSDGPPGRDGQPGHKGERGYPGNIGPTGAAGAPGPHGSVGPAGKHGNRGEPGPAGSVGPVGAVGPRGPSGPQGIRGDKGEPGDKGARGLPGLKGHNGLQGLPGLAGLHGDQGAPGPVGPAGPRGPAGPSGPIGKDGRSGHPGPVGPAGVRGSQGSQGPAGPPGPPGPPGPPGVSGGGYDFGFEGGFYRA

## Recombinant PnxIIIA protein (natural protein)
  A620 at 10 μg/ml: 0.55 A620
